Source: patent US20220073646A1 (Hoffmann-La Roche, published 2022)

What was measured:
human 4-1BB on cells [1] = target: T1, human 4-1BB on cells (human, UniProt Q07011 24-255); assay: cell-based or functional assay
[2] = target: mouse 4-1BB on activated mouse splenocytes (mouse, UniProt P20334 24-256); assay: flow cytometry, activated mouse T cells
[3] = target: T2, cynomolgus 4-1BB on activated cynomolgus PBMC (cynomolgus, UniProt Q07011 24-255 (human entry)); assay: flow cytometry, activated cynomolgus PBMC
T2 chain: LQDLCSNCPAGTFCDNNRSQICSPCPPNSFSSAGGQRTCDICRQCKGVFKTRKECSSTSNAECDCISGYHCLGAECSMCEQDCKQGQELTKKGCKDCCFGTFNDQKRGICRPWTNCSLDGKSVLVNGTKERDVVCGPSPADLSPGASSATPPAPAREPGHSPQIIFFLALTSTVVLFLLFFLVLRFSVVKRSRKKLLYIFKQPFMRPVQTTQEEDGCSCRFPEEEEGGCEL

[4] = target: T3, recombinant human 4-1BB Fc(kih) (human, UniProt P0DOX5 223-449 = IgG part, biotin on C-terminal Avi tag where used biotinylated); assay: SPR, captured IgG, 4-1BB Fc(kih) analyte
T3 construct: also called hu4-1BB; biotinylated human 4-1BB

human 4-1BB on cells [5] = target: T1, human 4-1BB on cells; assay: flow cytometry, activated human CD8 T cells
[6] = target: recombinant cynomolgus 4-1BB Fc(kih) (cynomolgus, UniProt P0DOX5 223-449 = IgG part, biotin on C-terminal Avi tag where used biotinylated); assay: SPR, captured IgG, cyno 4-1BB Fc(kih) analyte
[7] = target: T4, recombinant murine 4-1BB Fc(kih) (murine, UniProt P0DOX5 223-449 = IgG part, biotin on C-terminal Avi tag where used biotinylated); assay: phage display, Fab screening
T4 construct: also called mu4-1BB

human 4-1BB on cells [8] = target: T1, human 4-1BB on cells; assay: cell-based or functional assay; remark: listed apart in the source
[9] = target: T5, human fibroblast activation protein (huFAP) on cells (human, UniProt Q12884 1-760); assay: flow cytometry, NIH/3T3-huFAP clone 19
T5 construct: also called NIH/3T3-huFAP clone 39; NIH/3T3-huFAP clone 19

human 4-1BB on cells [10] = target: T1, human 4-1BB on cells; assay: flow cytometry, activated human CD8+ T cells
[11] = target: T6, recombinant human OX40 Fc(kih) (human, UniProt P0DOX5 223-449 = IgG part, biotin on C-terminal Avi tag where used biotinylated); assay: phage display, Fab ELISA
T6 construct: antigen Fc knob chain plus Fc hole chain; also called monomeric human OX40 antigen Fc(kih) fusion; biotinylated human OX40

[12] = target: T7, recombinant human GITR Fc(kih) (human, UniProt P0DOX5 223-449 = IgG part, biotin on C-terminal Avi tag where used biotinylated); assay: SPR, GITR Fc(kih) on SA chip, FAP second analyte
T7 construct: also called hu GITR-Fc; human monomeric GITR-Fc fusion

[13] = target: T5, human fibroblast activation protein …; assay: flow cytometry, 3T3-huFAP
[14] = target: T8, human GITR on HEK cells (HEK-GITR) (human, UniProt Q9Y5U5 26-241); assay: flow cytometry, HEK-GITR
T8 construct: also called cell surface expressed human GITR
T8 sequence: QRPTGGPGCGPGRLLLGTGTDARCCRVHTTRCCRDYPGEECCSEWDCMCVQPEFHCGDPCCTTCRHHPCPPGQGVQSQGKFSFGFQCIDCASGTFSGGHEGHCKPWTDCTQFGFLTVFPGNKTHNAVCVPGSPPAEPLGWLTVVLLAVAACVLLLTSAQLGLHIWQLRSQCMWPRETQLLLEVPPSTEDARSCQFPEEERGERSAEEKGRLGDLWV

[15] = target: T9, human FAP (His-tagged ectodomain) (human, UniProt Q12884 27-760); assay: SPR, GITR Fc(kih) on SA chip, FAP second analyte
T9 construct: SPR texts say 'human FAP' or 'His-tagged ... dimeric FAP'; also called hu FAP; human FAP (analyte 2)

human OX40 on cells [16] = target: T10, human OX40 on cells (human, UniProt P43489 29-277); assay: cell-based or functional assay
T10 sequence: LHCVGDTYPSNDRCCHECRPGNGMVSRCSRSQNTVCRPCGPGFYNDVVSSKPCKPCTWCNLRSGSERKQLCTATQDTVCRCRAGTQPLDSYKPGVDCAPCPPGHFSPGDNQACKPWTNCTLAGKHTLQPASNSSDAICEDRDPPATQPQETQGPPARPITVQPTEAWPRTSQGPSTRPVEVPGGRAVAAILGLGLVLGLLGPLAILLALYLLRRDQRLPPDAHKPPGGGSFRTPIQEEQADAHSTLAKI

human OX40 on cells [17] = target: T10, human OX40 on cells; assay: cell-based or functional assay; remark: listed apart in the source
[18] = target: T11, dimeric human OX40 Fc fusion with a C-terminal Ha tag (human); assay: SPR, OX40 Fc held on OX40 ligand
T11 construct: also called recombinant human Ox40 Fc; huOx40-Fc

[19] = target: T12, recombinant human OX40 His (human); assay: SPR, captured IgG, OX40 His analyte
T12 construct: ectodomain with avi and hexahistidine tag; also called human Ox40 avi His
T12 chain: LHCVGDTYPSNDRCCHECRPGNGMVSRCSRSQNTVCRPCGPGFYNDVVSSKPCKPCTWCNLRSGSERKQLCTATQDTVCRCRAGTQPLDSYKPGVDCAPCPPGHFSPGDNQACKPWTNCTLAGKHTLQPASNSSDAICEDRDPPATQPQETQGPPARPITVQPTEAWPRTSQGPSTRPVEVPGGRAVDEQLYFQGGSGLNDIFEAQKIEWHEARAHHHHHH

[20] = target: T6, recombinant human OX40 Fc(kih); assay: SPR, captured IgG, OX40 Fc(kih) analyte
human OX40 on cells [21] = target: T10, human OX40 on cells; assay: flow cytometry, activated human CD4 T cells
[22] = target: recombinant cynomolgus OX40 Fc(kih) (cynomolgus, UniProt P0DOX5 223-449 = IgG part, biotin on C-terminal Avi tag where used biotinylated); assay: SPR, captured IgG, cyno OX40 Fc(kih) analyte
[23] = target: T13, cynomolgus OX40 on activated cynomolgus PBMC (cynomolgus, UniProt P43489 29-214 (human entry)); assay: flow cytometry, activated cynomolgus CD4 T cells
T13 construct: whole, on cells
T13 chain: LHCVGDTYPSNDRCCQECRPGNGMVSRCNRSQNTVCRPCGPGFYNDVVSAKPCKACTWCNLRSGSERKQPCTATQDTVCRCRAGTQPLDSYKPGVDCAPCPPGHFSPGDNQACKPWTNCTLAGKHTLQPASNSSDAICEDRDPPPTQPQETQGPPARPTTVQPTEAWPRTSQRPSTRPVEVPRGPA

[24] = target: recombinant murine OX40 Fc(kih) (murine, UniProt P0DOX5 223-449 = IgG part, biotin on C-terminal Avi tag); assay: SPR avidity format, murine OX40 Fc(kih) on SA chip
[25] = target: T14, recombinant murine OX40 (cleaved by AcTEV digestion) (murine, UniProt P47741 20-211); assay: SPR, captured IgG, AcTEV-cleaved murine OX40 analyte
T14 construct: Fc removed from murine OX40 Fc(kih)
T14 sequence: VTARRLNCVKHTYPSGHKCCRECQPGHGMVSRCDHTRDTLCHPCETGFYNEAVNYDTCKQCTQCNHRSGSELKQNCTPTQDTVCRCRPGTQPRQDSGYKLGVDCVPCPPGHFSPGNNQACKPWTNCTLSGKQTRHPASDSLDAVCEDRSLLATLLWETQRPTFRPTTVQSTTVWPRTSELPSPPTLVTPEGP

mouse 4-1BB on activated mouse splenocytes, sequence (P20334 24-256 limits assumed): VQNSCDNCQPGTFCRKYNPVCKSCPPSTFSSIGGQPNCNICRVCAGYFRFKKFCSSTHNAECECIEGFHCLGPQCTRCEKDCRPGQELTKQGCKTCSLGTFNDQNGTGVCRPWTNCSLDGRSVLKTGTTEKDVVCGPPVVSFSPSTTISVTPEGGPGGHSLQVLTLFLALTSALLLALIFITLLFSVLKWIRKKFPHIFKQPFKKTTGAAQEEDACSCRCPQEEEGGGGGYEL

B1: 9B11 P329GLALA IgG1 (antibody, V domains shown)
VH: QVQLVQSGAEVKKPGSSVKVSCKASGGTFSSYAISWVRQAPGQGLEWMGGIIPIFGTANYAQKFQGRVTITADKSTSTAYMELSSLRSEDTAVYYCARSSGAYPGYFDYWGQGTTVTVSS
VL: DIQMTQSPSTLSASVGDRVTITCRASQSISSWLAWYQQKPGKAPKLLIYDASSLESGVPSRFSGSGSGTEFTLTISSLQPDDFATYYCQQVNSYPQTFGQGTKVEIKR
notes: anti-4-1BB
Human 4-1BB on cells [1]
  EC50 of increase of IFNγ secretion in activated CD8+ T cells (surface-immobilized IgG): 0.12 nM
[2]
  binding result: no binding
[3]
  binding result: binds
[4]
  Kd: 140 nM
  koff: 0.0039 s⁻¹
  kon: 27000 M⁻¹ s⁻¹
Human 4-1BB on cells [5]
  EC50: 4.49 nM
[6]
  Kd: 78 nM
  koff: 0.002 s⁻¹
  kon: 26000 M⁻¹ s⁻¹

B2: clone 20G2 Fab (Fab, V domains shown)
VH: QVQLVQSGAEVKKPGSSVKVSCKASGGTFSSYAISWVRQAPGQGLEWMGGIIPIFGTANYAQKFQGRVTITADKSTSTAYMELSSLRSEDTAVYYCARSYYWESYPFDYWGQGTTVTVSS
VL: DIQMTQSPSTLSASVGDRVTITCRASQSISSWLAWYQQKPGKAPKLLIYDASSLESGVPSRFSGSGSGTEFTLTISSLQPDDFATYYCQQQHSYYTFGQGTKVEIK
notes: phage library Fab with CH1/CL and tags
[7]
  binding result: binds

B3: 12B3/FAP P329GLALA IgG1 2+2 (bispecific antibody)
heavy: not shown
light 1: not shown
light 2: EIVLTQSPGTLSLSPGERATLSCRASQSVSRSYLAWYQQKPGQAPRLLIIGASTRATGIPDRFSGSGSGTDFTLTISRLEPEDFAVYYCQQGQVIPPTFGQGTKVEIKSSASTKGPSVFPLAPSSKSTSGGTAALGCLVKDYFPEPVTVSWNSGALTSGVHTFPAVLQSSGLYSLSSVVTVPSSSLGTQTYICNVNHKPSNTKVDKKVEPKSCD
notes: also called 12B3×FAP (28H1) 2+2
Human 4-1BB on cells [8]
  EC50 of NFκB/luciferase activation, 4-1BB reporter HeLa with NIH/3T3-huFAP clone 19: 0.2 nM
[9]
  EC50: 12.2 nM
Human 4-1BB on cells [10]
  EC50: 2 nM

B4: clone 17A9 Fab (Fab, V domains shown)
VH: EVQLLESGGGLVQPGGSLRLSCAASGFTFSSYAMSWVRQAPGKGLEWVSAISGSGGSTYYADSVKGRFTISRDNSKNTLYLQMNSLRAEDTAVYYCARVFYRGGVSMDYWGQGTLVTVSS
VL: SSELTQDPAVSVALGQTVRITCQGDSLRSYYASWYQQKPGQAPVLVIYGKNNRPSGIPDRFSGSSSGNTASLTITGAQAEDEADYYCNSRVMPHNRVFGGGTKLTV
notes: as for B2
[11]
  binding result: binds

B5: (GITR-FAP) [8A06] 4+1 construct (bispecific antibody, human IgG1, lambda, L234A L235A)
heavy 1: not shown
heavy 2: not shown
light: SSELTQDPAVSVALGQTVRITCQGDSLRSYYASWYQQKPGQAPVLVIYGKNNRPSGIPDRFSGSSSGNTASLTITGAQAEDEADYYCNSPQTSGSAVFGGGTKLTVLGQPKAAPSVTLFPPSSEELQANKATLVCLISDFYPGAVTVAWKADSSPVKAGVETTTPSKQSNNKYAASSYLSLTPEQWKSHRSYSCQVTHEGSTVEKTVAPTECS
[12]
  binding result: binds

B6: (GITR-FAP) [8A06] 4+2 construct (bispecific antibody, human IgG1, lambda, L234A L235A)
heavy: not shown
light 1: SSELTQDPAVSVALGQTVRITCQGDSLRSYYASWYQQKPGQAPVLVIYGKNNRPSGIPDRFSGSSSGNTASLTITGAQAEDEADYYCNSPQTSGSAVFGGGTKLTVLGQPKAAPSVTLFPPSSEELQANKATLVCLISDFYPGAVTVAWKADSSPVKAGVETTTPSKQSNNKYAASSYLSLTPEQWKSHRSYSCQVTHEGSTVEKTVAPTECS
light 2: EIVLTQSPGTLSLSPGERATLSCRASQSVSRSYLAWYQQKPGQAPRLLIIGASTRATGIPDRFSGSGSGTDFTLTISRLEPEDFAVYYCQQGQVIPPTFGQGTKVEIKSSASTKGPSVFPLAPSSKSTSGGTAALGCLVKDYFPEPVTVSWNSGALTSGVHTFPAVLQSSGLYSLSSVVTVPSSSLGTQTYICNVNHKPSNTKVDKKVEPKSC
[13]
  binding result: binds
[14]
  EC50: 3.85 nM
[15]
  binding result: binds

B7: 20B7 P329GLALA IgG1 (antibody, V domains shown)
VH: QVQLVQSGAEVKKPGSSVKVSCKASGGTFSSYAISWVRQAPGQGLEWMGGIIPIFGTANYAQKFQGRVTITADKSTSTAYMELSSLRSEDTAVYYCARVNYPYSYWGDFDYWGQGTTVTVSS
VL: DIQMTQSPSTLSASVGDRVTITCRASQSISSWLAWYQQKPGKAPKLLIYDASSLESGVPSRFSGSGSGTEFTLTISSLQPDDFATYYCQQYQAFSLTFGQGTKVEIKR
notes: anti-OX40
Human OX40 on cells [16]
  EC50 of NFκB activation in HeLa_hOx40_NFκB_luc1 reporter cells with secondary anti-human IgG Fcγ antibody: 2.27 nM
Human OX40 on cells [17]
  EC50 of rescuing suboptimal TCR stimulation with plate-immobilized anti-OX40 binder (preactivated human CD4 T cells): 0.09 nM
[18]
  binding result: binds
[19]
  Kd: 5.6 nM
  koff: 0.00066 s⁻¹
  kon: 120000 M⁻¹ s⁻¹
[20]
  Kd: 42 nM
  koff: 0.0013 s⁻¹
  kon: 32000 M⁻¹ s⁻¹
Human OX40 on cells [21]
  EC50: 1.64 nM
[22]
  Kd: 1100 nM
  koff: 0.0166 s⁻¹
  kon: 15700 M⁻¹ s⁻¹
[23]
  EC50: 1.52 nM
[24]
  binding result: binds
[25]
  Kd: 360 nM
  koff: 0.018 s⁻¹
  kon: 49000 M⁻¹ s⁻¹
